Source: paper PMC10397247

What was measured:
4H3381-bH = target: T1, 4H3381-bH; experiment: two-hybrid library CCNG1;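 further: natural log of median RNA to DNA barcode read ratio; higher means stronger binding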
T1 chain: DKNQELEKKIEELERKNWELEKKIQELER

4H370-bH = target: T2, 4H370-bH; experiment: two-hybrid library CCNG1;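 further: natural log of median RNA to DNA barcode read ratio; higher means stronger binding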
T2 chain: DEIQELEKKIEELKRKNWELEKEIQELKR

4H3297-bH = target: T3, 4H3297-bH; experiment: two-hybrid library CCNG1;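 further: natural log of median RNA to DNA barcode read ratio; higher means stronger binding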
T3 chain: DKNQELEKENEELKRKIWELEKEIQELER

4H730-bH = target: T4, 4H730-bH; experiment: two-hybrid library CCNG1;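 further: natural log of median RNA to DNA barcode read ratio; higher means stronger binding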
T4 chain: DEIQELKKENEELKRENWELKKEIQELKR

4H3364-bH = target: T5, 4H3364-bH; experiment: two-hybrid library CCNG1
T5 chain: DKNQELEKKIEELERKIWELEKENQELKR

4H56-bH = target: T6, 4H56-bH; experiment: two-hybrid library CCNG1
T6 chain: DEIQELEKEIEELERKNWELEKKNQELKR

4H796-bH = target: T7, 4H796-bH; experiment: two-hybrid library CCNG1
T7 chain: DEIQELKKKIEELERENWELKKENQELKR

4H932-bH = target: T8, 4H932-bH; experiment: two-hybrid library CCNG1
T8 chain: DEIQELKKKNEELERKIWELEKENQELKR

4H949-bH = target: T9, 4H949-bH; experiment: two-hybrid library CCNG1
T9 chain: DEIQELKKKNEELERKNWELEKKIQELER

4H349-bH = target: T10, 4H349-bH; experiment: two-hybrid library CCNG1
T10 chain: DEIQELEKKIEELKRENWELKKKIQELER

O9-bS = target: T11, O9-bS; experiment: two-hybrid library CCNG1
T11 chain: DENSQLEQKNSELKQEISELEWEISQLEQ

O7-bS = target: T12, O7-bS; experiment: two-hybrid library CCNG1
T12 chain: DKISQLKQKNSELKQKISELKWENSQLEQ

O8-bS = target: T13, O8-bS; experiment: two-hybrid library CCNG1
T13 chain: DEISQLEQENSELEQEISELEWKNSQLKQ

O7-bP = target: T14, O7-bP; experiment: two-hybrid library CCNG1
T14 chain: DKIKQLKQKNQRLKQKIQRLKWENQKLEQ

O9-bP = target: T15, O9-bP; experiment: two-hybrid library CCNG1
T15 chain: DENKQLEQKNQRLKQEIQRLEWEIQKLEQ

O6-bP = target: T16, O6-bP; experiment: two-hybrid library CCNG1
T16 chain: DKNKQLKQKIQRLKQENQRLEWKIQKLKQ

O8-bP = target: T17, O8-bP; experiment: two-hybrid library CCNG1
T17 chain: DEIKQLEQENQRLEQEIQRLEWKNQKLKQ

O5-bP = target: T18, O5-bP; experiment: two-hybrid library CCNG1
T18 chain: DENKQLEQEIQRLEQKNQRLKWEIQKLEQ

4H780-bA = target: T19, 4H780-bA; experiment: two-hybrid library CCNG1
T19 chain: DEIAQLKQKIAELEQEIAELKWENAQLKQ

4H918-bA = target: T20, 4H918-bA; experiment: two-hybrid library CCNG1
T20 chain: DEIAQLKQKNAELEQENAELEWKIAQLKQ

4H953-bA = target: T21, 4H953-bA; experiment: two-hybrid library CCNG1
T21 chain: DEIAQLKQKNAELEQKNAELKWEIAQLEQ

4H855-bA = target: T22, 4H855-bA; experiment: two-hybrid library CCNG1
T22 chain: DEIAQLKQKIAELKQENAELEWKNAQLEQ

4H4073-bA = target: T23, 4H4073-bA; experiment: two-hybrid library CCNG1
T23 chain: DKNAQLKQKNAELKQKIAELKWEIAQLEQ

4H346-bA = target: T24, 4H346-bA; experiment: two-hybrid library CCNG1
T24 chain: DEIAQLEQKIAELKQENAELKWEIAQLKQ

4H797-bA = target: T25, 4H797-bA; experiment: two-hybrid library CCNG1
T25 chain: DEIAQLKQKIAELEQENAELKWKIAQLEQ

4H457-bA = target: T26, 4H457-bA; experiment: two-hybrid library CCNG1
T26 chain: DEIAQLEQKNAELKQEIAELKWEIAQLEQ

4H575-bA = target: T27, 4H575-bA; experiment: two-hybrid library CCNG1
T27 chain: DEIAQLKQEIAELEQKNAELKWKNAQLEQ

4H683-bA = target: T28, 4H683-bA; experiment: two-hybrid library CCNG1
T28 chain: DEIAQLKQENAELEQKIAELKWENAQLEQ

4H3926-bA = target: T29, 4H3926-bA; experiment: two-hybrid library CCNG1
T29 chain: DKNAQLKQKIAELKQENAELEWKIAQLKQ

4H754-bA = target: T30, 4H754-bA; experiment: two-hybrid library CCNG1
T30 chain: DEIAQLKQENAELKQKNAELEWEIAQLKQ

4H968-bA = target: T31, 4H968-bA; experiment: two-hybrid library CCNG1
T31 chain: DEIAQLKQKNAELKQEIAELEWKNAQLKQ

O9 = target: T32, O9; experiment: two-hybrid library CC0; details: mean of both orientations
T32 chain: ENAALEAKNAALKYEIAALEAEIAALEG

O8 = target: T33, O8; experiment: two-hybrid library CC0; details: mean of both orientations
T33 chain: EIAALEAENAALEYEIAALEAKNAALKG

O7 = target: T34, O7; experiment: two-hybrid library CC0; details: mean of both orientations
T34 chain: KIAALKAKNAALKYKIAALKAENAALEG

4H72-bH = target: T35, 4H72-bH; experiment: two-hybrid library CCNG1
T35 chain: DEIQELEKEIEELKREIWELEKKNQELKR

4H918-bH = target: T36, 4H918-bH; experiment: two-hybrid library CCNG1
T36 chain: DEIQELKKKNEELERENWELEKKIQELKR

4H883-bH = target: T37, 4H883-bH; experiment: two-hybrid library CCNG1
T37 chain: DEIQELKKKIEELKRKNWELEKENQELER

4H462-bH = target: T38, 4H462-bH; experiment: two-hybrid library CCNG1
T38 chain: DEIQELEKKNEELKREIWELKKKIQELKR

4H3843-bH = target: T39, 4H3843-bH; experiment: two-hybrid library CCNG1
T39 chain: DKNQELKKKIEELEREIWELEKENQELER

4H4001-bH = target: T40, 4H4001-bH; experiment: two-hybrid library CCNG1
T40 chain: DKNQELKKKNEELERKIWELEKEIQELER

4H568-bH = target: T41, 4H568-bH; experiment: two-hybrid library CCNG1
T41 chain: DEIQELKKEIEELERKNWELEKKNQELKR

4H687-bA = target: T42, 4H687-bA; experiment: two-hybrid library CCNG1
T42 chain: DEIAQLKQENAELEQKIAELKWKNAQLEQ

4H607-bH = target: T43, 4H607-bH; experiment: two-hybrid library CCNG1
T43 chain: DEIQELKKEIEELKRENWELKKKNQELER

4H953-bH = target: T44, 4H953-bH; experiment: two-hybrid library CCNG1
T44 chain: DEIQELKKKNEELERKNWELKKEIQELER

4H797-bH = target: T45, 4H797-bH; experiment: two-hybrid library CCNG1
T45 chain: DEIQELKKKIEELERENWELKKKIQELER

4H967-bH = target: T46, 4H967-bH; experiment: two-hybrid library CCNG1
T46 chain: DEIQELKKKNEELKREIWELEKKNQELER

4H3782-bH = target: T47, 4H3782-bH; experiment: two-hybrid library CCNG1
T47 chain: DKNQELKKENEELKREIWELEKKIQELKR

4H687-bH = target: T48, 4H687-bH; experiment: two-hybrid library CCNG1
T48 chain: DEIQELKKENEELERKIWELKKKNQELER

GCN2_T = experiment: two-hybrid library CCmax
4H465-AA = target: T49, 4H465-AA; experiment: two-hybrid library CCmax; details: mean of both orientations
T49 chain: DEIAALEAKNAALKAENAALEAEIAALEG

4H486-AA = target: T50, 4H486-AA; experiment: two-hybrid library CCmax; details: mean of both orientations
T50 chain: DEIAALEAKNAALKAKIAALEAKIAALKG

4H3782-AA = target: T51, 4H3782-AA; experiment: two-hybrid library CCmax; details: mean of both orientations
T51 chain: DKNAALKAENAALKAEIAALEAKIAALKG

4H895-AA = target: T52, 4H895-AA; experiment: two-hybrid library CCmax; details: mean of both orientations
T52 chain: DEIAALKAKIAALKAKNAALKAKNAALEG

4H_GCN4 = experiment: two-hybrid library CCmax; details: mean of both orientations
4H_APH = target: T53, 4H_APH; experiment: two-hybrid library CCmax; details: mean of both orientations
T53 chain: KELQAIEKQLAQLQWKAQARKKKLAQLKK

4H3705-AA = target: T54, 4H3705-AA; experiment: two-hybrid library CCmax
T54 chain: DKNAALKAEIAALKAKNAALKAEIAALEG

4H535-AA = target: T55, 4H535-AA; experiment: two-hybrid library CCmax; details: mean of both orientations
T55 chain: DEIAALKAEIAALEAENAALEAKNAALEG

4H_BCR = target: T56, 4H_BCR; experiment: two-hybrid library CCmax; details: mean of both orientations
T56 chain: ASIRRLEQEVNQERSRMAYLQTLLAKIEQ

4H58-AA = target: T57, 4H58-AA; experiment: two-hybrid library CCmax; details: mean of both orientations
T57 chain: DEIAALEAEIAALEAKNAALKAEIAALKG

4H_GCN4, sequence (chain, as listed by the source): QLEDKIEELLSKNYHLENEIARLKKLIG

B1: 4H3297-bH (peptide)
chain: DKNQELEKENEELKRKIWELEKEIQELER
interaction score (4H3381-bH): -0.113 | interaction score (4H370-bH): 0.804 | interaction score (4H3297-bH): 0.885 | interaction score (4H730-bH): -0.0968 | interaction score (4H3364-bH): -0.362 | interaction score (4H56-bH): -1.32 | interaction score (4H796-bH): -0.673 | interaction score (4H932-bH): -0.844 | interaction score (4H949-bH): -1.66 | interaction score (4H349-bH): -0.0353

B2: O7-bS (peptide)
chain: DKISQLKQKNSELKQKISELKWENSQLEQ
interaction score (O9-bS): -1.07 | interaction score (O7-bS): -1.01 | interaction score (O8-bS): 0.93

B3: O6-bP (peptide)
chain: DKNKQLKQKIQRLKQENQRLEWKIQKLKQ
interaction score (O7-bP): -0.618 | interaction score (O9-bP): -0.21 | interaction score (O6-bP): -0.702 | interaction score (O8-bP): -2.38

B4: O5-bP (peptide)
chain: DENKQLEQEIQRLEQKNQRLKWEIQKLEQ
interaction score (O7-bP): -1.28 | interaction score (O9-bP): -1.33 | interaction score (O6-bP): 2.35 | interaction score (O5-bP): -1.57 | interaction score (O8-bP): -0.837

B5: 4H346-bA (peptide)
chain: DEIAQLEQKIAELKQENAELKWEIAQLKQ
interaction score (4H780-bA): -0.692 | interaction score (4H918-bA): -0.428 | interaction score (4H953-bA): -1.6 | interaction score (4H855-bA): 0.0345 | interaction score (4H4073-bA): -0.388 | interaction score (4H346-bA): 1.48 | interaction score (4H797-bA): -0.562 | interaction score (4H457-bA): -0.833 | interaction score (4H575-bA): -0.114 | interaction score (4H683-bA): 0.357 | interaction score (4H3926-bA): 1.57 | interaction score (4H754-bA): -0.388 | interaction score (4H968-bA): -0.648

B6: O7 (peptide)
chain: KIAALKAKNAALKYKIAALKAENAALEG
interaction score (O9): -2.77 | interaction score (O8): 1.47 | interaction score (O7): -2.81

B7: 4H370-bH (peptide)
chain: DEIQELEKKIEELKRKNWELEKEIQELKR
interaction score (4H72-bH): -0.56 | interaction score (4H918-bH): -0.0355 | interaction score (4H883-bH): -0.56 | interaction score (4H370-bH): 0.649 | interaction score (4H462-bH): 0.842 | interaction score (4H3843-bH): 0.946 | interaction score (4H4001-bH): 0.0634 | interaction score (4H568-bH): 0.618 | interaction score (4H687-bA): 0.534 | interaction score (4H607-bH): -0.999 | interaction score (4H953-bH): 0.739 | interaction score (4H797-bH): 0.396 | interaction score (4H967-bH): 0.239 | interaction score (4H3782-bH): 0.858 | interaction score (4H687-bH): -1.39

B8: 4H3705-AA (peptide)
chain: DKNAALKAEIAALKAKNAALKAEIAALEG
interaction score (GCN2_T): -1.92 | interaction score (4H465-AA): -1.21 | interaction score (4H486-AA): -1.65 | interaction score (4H3782-AA): -1.26 | interaction score (4H895-AA): -1.78 | interaction score (4H_GCN4): -1.4 | interaction score (4H_APH): -2.68 | interaction score (4H3705-AA): -1.2 | interaction score (4H535-AA): -0.26 | interaction score (4H_BCR): -1.43 | interaction score (4H58-AA): 0.517

B9: O7-bP (peptide)
chain: DKIKQLKQKNQRLKQKIQRLKWENQKLEQ
interaction score (O7-bP): -1.43 | interaction score (O9-bP): -1.09 | interaction score (O8-bP): 1.3
